Reference: the supplement of paper PMC10598134
± gives the standard deviation.

Experiment: collision cross section of modified peptide (TIMS, N2, iRT-aligned); higher = larger / more extended gas-phase ion
In short: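 Collision cross section was derived from the Mason-Schamp equation. Each value averages 1–3 technical replicates of the most abundant feature per charge state, measured on a timsTOF Pro/HT in dda-PASEF mode (nitrogen, ~2.4 mbar) after a 120-min nanoflow C18 gradient at 60 °C. Synthetic peptide pools (~100 fmol/µL in 2% acetonitrile/0.1% formic acid, iRT standard spiked 1:40) were identified with MaxQuant, and 1/K0 was calibrated with three reference ions and aligned run-wise to the median iRT peptide deviation.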

[1] = charge state: 2, modification: Biotin
[2] = charge state: 2, modification: Propionyl
[3] = charge state: 2, modification: HexNAc (ST)
[4] = charge state: 2, modification: Malonyl
[5] = charge state: 2, modification: hydroxyisobutyryl
[6] = charge state: 3, modification: hydroxyisobutyryl
[7] = charge state: 2, modification: Methyl (R)
[8] = charge state: 3, modification: Methyl (R)
[9] = charge state: 2, modification: GlyGly (K)
[10] = charge state: 3, modification: GlyGly (K)
[11] = charge state: 2, modification: Nitro (Y)
[12] = charge state: 3, modification: Trimethyl (K)
[13] = charge state: 2, modification: Glutarylation
[14] = charge state: 3, modification: Glutarylation
[15] = charge state: 2, modification: Hydroxyproline
[16] = charge state: 3, modification: Hydroxyproline
[17] = charge state: 2, modification: Succinyl
[18] = charge state: 3, modification: Succinyl
[19] = charge state: 2, modification: Trimethyl (K)
[20] = charge state: 3, modification: Citrullination (R)
[21] = charge state: 2, modification: Citrullination (R)
[22] = charge state: 2, modification: Dimethyl (K)
[23] = charge state: 3, modification: Dimethyl (K)
[24] = charge state: 2, modification: Phospho (Y)
[25] = charge state: 3, modification: Formyl
[26] = charge state: 2, modification: Formyl
[27] = charge state: 2, modification: Acetyl (K)
[28] = charge state: 2, modification: Butyryl

For INNFSADIKDSK [_INNFSADIK(Biotin)DSK_], which collision cross section [1] is on record?
The collision cross section was 419.19 Å².

Which collision cross section [2] does the source give for “AGPNASIISLKSDK [_AGPNASIISLK(Propionyl)SDK_]” here?
Its collision cross section is 409.61 ± 0.38 Å².

For VTGGIFSVTK [_VTGGIFS(HexNAc (ST))VTK_], which collision cross section [3] is on record?
The collision cross section was 361.54 ± 1.2 Å².

For “STGLELETPSLVPVKK [_STGLELETPSLVPVK(Malonyl)K_]”, which collision cross section [4] is on record?
The collision cross section was 445.74 ± 0.66 Å².

Which results are given for “LLIVSTTPYSEKDTK [_LLIVSTTPYSEK(hydroxyisobutyryl)DTK_]”?
collision cross section [5]: 461.48 ± 0.76 Å²; collision cross section [6]: 486.54 ± 2.8 Å²

Which results are given for “GGGDRGGFGPGK [_GGGDR(Methyl (R))GGFGPGK_]”?
collision cross section [7]: 341.42 ± 0.86 Å²; collision cross section [8]: 412.06 ± 3 Å²

For LLEEEDSKLK [_LLEEEDSK(GlyGly (K))LK_], which collision cross section [9] is on record?
The collision cross section was 386.87 ± 0.88 Å².

And the collision cross section [10]?
The collision cross section was 453.7 ± 1.6 Å².

For “VFIGNLNTLVVKK [_VFIGNLNTLVVK(Malonyl)K_]”, which collision cross section [4] is on record?
The collision cross section was 419.59 ± 0.57 Å².

With LNAIYQNNLTK [_LNAIY(Nitro (Y))QNNLTK_] as the substance, how does the collision cross section [11] read?
The collision cross section was 384.56 ± 0.55 Å².

With “GETASKLQSEISR [_GETASK(Trimethyl (K))LQSEISR_]” as the substance, how does the collision cross section [12] read?
Its collision cross section is 463.43 ± 1.5 Å².

With “GTISAPGKVVTAAAQAK [_GTISAPGK(hydroxyisobutyryl)VVTAAAQAK_]” as the substance, how does the collision cross section [5] read?
The collision cross section was 447.84 ± 0.78 Å².

And the collision cross section [6]?
The collision cross section was 524.07 ± 2 Å².

With FDDTNPEKEEAK [_FDDTNPEK(Malonyl)EEAK_] as the substance, how does the collision cross section [4] read?
Its collision cross section is 398.04 ± 0.6 Å².

With “AAQASDLEKIHLDEK [_AAQASDLEK(Biotin)IHLDEK_]” as the substance, how does the collision cross section (charge state: 3, modification: Biotin) read?
Its collision cross section is 515.52 Å².

Which collision cross section [2] does the source give for TLDEILQEKK [_TLDEILQEK(Propionyl)K_] here?
Its collision cross section is 380.38 Å².

Which collision cross section [1] does the source give for GSLEKGSPEDK [_GSLEK(Biotin)GSPEDK_] here?
The collision cross section was 382.87 Å².

What does the source list for “DAEAAEATAEGALKAEK [_DAEAAEATAEGALK(Gluratylation)AEK_]”?
collision cross section [13]: 438.1 ± 0.96 Å²; collision cross section [14]: 545.34 ± 0.13 Å²

Which collision cross section [5] does the source give for “VPTTEKPTVTVNFR [_VPTTEK(hydroxyisobutyryl)PTVTVNFR_]” here?
The collision cross section was 429.55 ± 0.83 Å².

What about the collision cross section [6] of the same substance?
The collision cross section was 512.54 ± 2 Å².

Which results are given for “GDKGDAGEPGR [_GDKGDAGEP(Hydroxyproline)GR_]”?
collision cross section [15]: 331.51 ± 0.55 Å²; collision cross section [16]: 414.61 ± 0.42 Å²

Which collision cross section [8] does the source give for “SGGYGGSRDYYSSR [_SGGYGGSR(Methyl (R))DYYSSR_]” here?
Its collision cross section is 475.52 ± 2 Å².

With “DDSFLGKLGGTLAR [_DDSFLGK(Succinyl)LGGTLAR_]” as the substance, how does the collision cross section [17] read?
Its collision cross section is 412.99 ± 0.37 Å².

And the collision cross section [18]?
The collision cross section was 489.32 ± 3.3 Å².

For “LQDVSGQLSSSKK [_LQDVSGQLSSSK(hydroxyisobutyryl)K_]”, which collision cross section [5] is on record?
Its collision cross section is 404.16 ± 0.3 Å².

What about the collision cross section [6] of the same substance?
The collision cross section was 470.99 ± 5.5 Å².

For “ALLQAKASGK [_ALLQAK(hydroxyisobutyryl)ASGK_]”, which collision cross section [5] is on record?
The collision cross section was 353.14 ± 1.3 Å².

What does the source list for “STNVTVAAARGIK [_STNVTVAAAR(Methyl (R))GIK_]”?
collision cross section [7]: 403.35 ± 0.97 Å²; collision cross section [8]: 483.31 ± 3.1 Å²

For “FIHQQPQSSSPVYGSSAK [_FIHQQPQSSSPVYGS(HexNAc (ST))SAK_]”, which collision cross section (charge state: 3, modification: HexNAc (ST)) is on record?
Its collision cross section is 528.58 ± 0.18 Å².

Which collision cross section [19] does the source give for “LLFSNTAAQKLR [_LLFSNTAAQK(Trimethyl (K))LR_]” here?
The collision cross section was 428.25 ± 0.6 Å².

What about the collision cross section [12] of the same substance?
Its collision cross section is 480.65 ± 2.4 Å².

For “GRGVGSPEPGPTAPYLGRR [_GR(Citrullination (R))GVGSPEPGPTAPYLGRR_]”, which collision cross section [20] is on record?
Its collision cross section is 497.66 ± 1.9 Å².

Which collision cross section [13] does the source give for “DAIHFYNKSLAEHR [_DAIHFYNK(Gluratylation)SLAEHR_]” here?
Its collision cross section is 458.31 Å².

What about the collision cross section [14] of the same substance?
The collision cross section was 515.3 ± 0.96 Å².

With LAEEENKAK [_LAEEENK(Biotin)AK_] as the substance, how does the collision cross section [1] read?
The collision cross section was 371.22 Å².

For “SFDEVEGVFGRGGGR [_SFDEVEGVFGR(Citrullination (R))GGGR_]”, which collision cross section [21] is on record?
The collision cross section was 404.76 ± 0.98 Å².

What about the collision cross section [20] of the same substance?
Its collision cross section is 503.12 Å².

For “TQAEGQGQGRGLGLVSAVR [_TQAEGQGQGR(Citrullination (R))GLGLVSAVR_]”, which collision cross section [20] is on record?
The collision cross section was 549.33 ± 0.79 Å².

What does the source list for “ISSNFSSIIAEKLR [_ISSNFSSIIAEK(Dimethyl (K))LR_]”?
collision cross section [22]: 442.58 ± 1.2 Å²; collision cross section [23]: 495.15 ± 0.74 Å²

With “TAIQAAGYPDK [_TAIQAAGY(Phospho (Y))PDK_]” as the substance, how does the collision cross section [24] read?
Its collision cross section is 361.65 ± 9.9 Å².

With “DFAFYNPRLQGK [_DFAFYNPR(Methyl (R))LQGK_]” as the substance, how does the collision cross section [7] read?
Its collision cross section is 413.14 ± 0.67 Å².

And the collision cross section [8]?
The collision cross section was 469.16 ± 2.2 Å².

With “LFVGGIKEDTEEHHLR [_LFVGGIK(Formyl)EDTEEHHLR_]” as the substance, how does the collision cross section [25] read?
The collision cross section was 535.03 ± 1.3 Å².

Which collision cross section [24] does the source give for PATSYVR [_PATSY(Phospho (Y))VR_] here?
The collision cross section was 328.8 ± 0.068 Å².

With “SGGYGGSRDYYSSR [_SGGYGGSR(Citrullination (R))DYYSSR_]” as the substance, how does the collision cross section [21] read?
Its collision cross section is 397.63 ± 1.4 Å².

With “SGKFTQQDIDEAK [_SGK(GlyGly (K))FTQQDIDEAK_]” as the substance, how does the collision cross section [9] read?
The collision cross section was 414.34 ± 1.9 Å².

What about the collision cross section [10] of the same substance?
The collision cross section was 476.61 ± 1.1 Å².

With “SPSDSGYSYETIGKTTK [_SPSDSGYSYETIGK(Propionyl)TTK_]” as the substance, how does the collision cross section (charge state: 3, modification: Propionyl) read?
Its collision cross section is 528.1 Å².

Which collision cross section [26] does the source give for SLEEEGAAHSGKR [_SLEEEGAAHSGK(Formyl)R_] here?
Its collision cross section is 409.43 ± 1.8 Å².

What about the collision cross section [25] of the same substance?
The collision cross section was 472.26 ± 2.9 Å².

With “SFSASGAQIVSR [_SFSASGAQIVS(HexNAc (ST))R_]” as the substance, how does the collision cross section [3] read?
Its collision cross section is 387.57 ± 0.63 Å².

For “VDIDAPDVSIEGPDAKLK [_VDIDAPDVSIEGPDAK(Acetyl (K))LK_]”, which collision cross section [27] is on record?
Its collision cross section is 462.55 ± 2.9 Å².

What does the source list for “FGTINIVHPKLGSYTK [_FGTINIVHPK(Acetyl (K))LGSYTK_]”?
collision cross section [27]: 467.42 ± 3.8 Å²; collision cross section (charge state: 3, modification: Acetyl (K)): 551.28 ± 1.6 Å²

For DFDTALKHYDK [_DFDTALK(Crotonyl)HYDK_], which collision cross section (charge state: 2, modification: Crotonyl) is on record?
Its collision cross section is 412.02 ± 2.4 Å².

And the collision cross section (charge state: 3, modification: Crotonyl)?
Its collision cross section is 466.35 ± 1.9 Å².

For GRGYFEHR [_GR(Methyl (R))GYFEHR_], which collision cross section [7] is on record?
The collision cross section was 342.05 Å².

And the collision cross section [8]?
The collision cross section was 410.57 ± 5.9 Å².

With DHLSDKESK [_DHLSDK(Formyl)ESK_] as the substance, how does the collision cross section [26] read?
Its collision cross section is 345.83 ± 0.37 Å².

Which collision cross section [12] does the source give for “DESFLGKLGGTLAR [_DESFLGK(Trimethyl (K))LGGTLAR_]” here?
The collision cross section was 477.03 ± 0.84 Å².

For “GEPGIPAIPGIRGPK [_GEPGIP(Hydroxyproline)AIPGIRGPK_]”, which collision cross section [15] is on record?
Its collision cross section is 382.81 ± 0.54 Å².

And the collision cross section [16]?
Its collision cross section is 511.46 ± 1.2 Å².

Which collision cross section [24] does the source give for STCTYVGAAK [_STCTY(Phospho (Y))VGAAK_] here?
Its collision cross section is 346.22 ± 0.0011 Å².

With LSITGTYDLK [_LSITGTY(Nitro (Y))DLK_] as the substance, how does the collision cross section [11] read?
Its collision cross section is 368.48 ± 0.22 Å².

What does the source list for “FLQEFYQDDELGKK [_FLQEFYQDDELGK(Trimethyl (K))K_]”?
collision cross section [19]: 464.1 ± 0.55 Å²; collision cross section [12]: 508.12 ± 1.8 Å²

With “ASDTSSETVFGKR [_ASDTSSETVFGK(Butyryl)R_]” as the substance, how does the collision cross section [28] read?
Its collision cross section is 403.53 ± 0.74 Å².

And the collision cross section (charge state: 3, modification: Butyryl)?
The collision cross section was 479.86 ± 1.9 Å².

For “LEEVTGKLQVAR [_LEEVTGK(Dimethyl (K))LQVAR_]”, which collision cross section [22] is on record?
Its collision cross section is 394.61 ± 0.25 Å².

And the collision cross section [23]?
Its collision cross section is 471.08 ± 2.1 Å².

With “VSPASSVDSNIPSSQGYKK [_VSPASSVDSNIPSSQGYK(Succinyl)K_]” as the substance, how does the collision cross section [17] read?
The collision cross section was 467.79 ± 1.1 Å².

And the collision cross section [18]?
Its collision cross section is 548.84 ± 1.1 Å².

Which collision cross section [28] does the source give for “GFCFITYTDEEPVKK [_GFCFITYTDEEPVK(Butyryl)K_]” here?
The collision cross section was 458.8 ± 0.51 Å².

With SLKLNTAEDAK [_SLK(Acetyl (K))LNTAEDAK_] as the substance, how does the collision cross section [27] read?
The collision cross section was 373.49 ± 1.6 Å².

Which collision cross section [4] does the source give for “SGNLTEDDKHNNAK [_SGNLTEDDK(Malonyl)HNNAK_]” here?
The collision cross section was 417.21 ± 1.6 Å².
